Laboratory results from paper PMC8420576 (The EMBO Journal, 2021).

Target: T1, SARS-CoV-2 RBD, B.1.427/B.1.429/Epsilon/Californian variant (L452R) (SARS-CoV-2, Epsilon/Californian …, L452R)
T1 construct: also called Epsilon/Californian RBD mutant; Californian L452R mutation
Test: BLI
Settings: both partners purified

B1: VHH antibody Re5D06, labeled with two PEG11-biotins (VHH)
VHH: QVQLVESGGGLVQPGGSLRLSCAASGITLDYYAIGWFRQAPGKEREGVSRIRSSDGSTNYADSVKGRFTMSRDNAKNTVYLQMNSLKPEDTAVYYCAYGPLTKYGSSWYWPYEYDYWGQGTQVTVSS
notes: also called Re5D06 (immobilized on BLI sensors)
Kd: ~0.4 nM
